assay: soluble on expression in E. coli; label from the status in PepcDB or PDB records

Row | Sequence | soluble on expression in E. coli
1 | GSMIRSTLSSWREYLTPITHKSTFLTTGQITPEEFVQAGDYLCHMFPTWKWNEESSDISYRDFLPKNKQFLIIRKVPCDKRAEQCVEVEGPDVIMKGFAEDGDEDDVLEYIGSETEHVQSTPAGGTKDSSIDDIDELIQDMEIKEEDENDDTEEFNAKGGLAKDMAQERYYDLYIAYSTSYRVPKMYIVGFNSNGSPLSPEQMFEDISADYRTKTATIEKLPFYKNSVLSVSIHPCKHANVMKILLDKVRVVRQRRRKELQEEQELDGVGDWEDLQDDIDDSLRVDQYLIVFLKFITSVTPSIQHDYTMEGW | soluble
2 | GSNEIKRGAVDLIKTGVNEKAMAGAVFSLFKKDGTEVKKELATDANGHIRVQGLEYGEYYFQETKAPKGYVIDPTKREFFVKNSGTINEDGTITSGTVVKMEVKNNEEPTIDKKINGKLEALPINPLTNYNYDIKTLIPEDIKEYKKYVVTDTLDNRLVIQGKPIVKIDGAEVNANVVEVAIEGQKVTATVKDFTKMDGKKEFHLQIKSQVKEGVPSGSEILNTAKIHFTNKNDVIGEKESKPVVVIPTTGIIELTKIDSANKNKMKGAEFVLKDNNGKIVVVAGKEVTGVSDENGVIKWSNIPYGDYQIFETKAPTYTKEDGTKTSYQLLKDPIDVKISENNQTVKLTIENNKS | soluble
3 | GSPNSPATGEKKECWSWESYLEEQKAITAPVSLFQDSQAVTHNKNGFKLGMKLEGIDPQHPSMYFILTVAEVCGYRLRLHFDGYSECHDFWVNANSPDIHPAGWFEKTGHKLQPPKGYKEEEFSWSQYLRSTRAQAAPKHLFVSQSHSPPPLGFQVGMKLEAVDRMNPSLVCVASVTDVVDSRFLVHFDNWDDTYDYWCDPSSPYIHPVGWCQKQGKPLTPPQDYPDPDNFCWEKYLEETGASAVPTWAFKVRPPHSFLVNMKLEAVDRRNPALIRVASVEDVEDHRIKIHFDGWSHGYDFWIDADHPDIHPAGWCSKTGHPLQPPLGPREPSSAVDSSGRIVTD | soluble
4 | GSPQLRQVGQIIRVPARMAATLILEPAGRCCWDEPVRIAVRGLAPEQPVTLRASLRDEKGALFQAHARYRADTLGELDLERAPALGGSFAGLEPMGLLWALEPEKPLVRLVKRDVRTPLAVELEVLDGHDPDPGRLLCQTRHERYFLPPGVRREPVRVGRVRGTLFLPPEPGPFPGIVDMFGTGGGLLEYRASLLAGKGFAVMALAYYNYEDLPKTMETLHLEYFEEAMNYLLSHPEVKGPGVGLLGISKGGELCLSMASFLKGITAAVVINGSVANVGGTLRYKGETLPPVGVNRNRIKVTKDGYADIVDVLNSPLEGPDQKSFIPVERAESTFLFLVGQDDHNWKSEFYANEACKRLQAHGRRKPQIICYPETGHYIEPPYFPLCRASLHALVGSPIIWGGEPRAHAMAQVDAWKQLQTFFHKHLGGHEGTIPSKVLEHHHHHH | soluble
5 | GSQEVRRGDFVRNWQLVAAVPLFQKLGPAVLVEIVRALRARTVPAGAVICRIGEPGDRMFFVVEGSVSVATPNPVELGPGAFFGEMALISGEPRSATVSAATTVSLLSLHSADFQMLCSSSPEIAEIFRKTALERRGAAASA | soluble
6 | GSRTGSESSRPNTALLDPSSPEFSAVVSVGDWLQAIKMDRYKDNFTAAGYTTLEAVVHMSQDDLARIGITAITHQNKILSSVQAMRTQMQQMHG | soluble
7 | GSSGARCYVDGSEEIGSDFKIKCEPKEGSLPLQYEWQKLSDSQKMPTSWLAEMTSSVISVKNASSEYSGTYSCTVRNRVGSDQCLLRLNVVPPSNK | soluble
8 | GSSSGGGSSSSGTSSAFSSYFNNKVGIPQEHVDHDDFDANQLLNKINE | soluble
9 | GSVVIVGRIILSGSGSITAYSQQTRGLLGCIITSLTGRDKNQVEGEVQVVSTATQSFLATCVNGVCWTVYHGAGSKTLAGPKGPITQMYTNVDQDLVGWQAPPGARSLTPCTCGSSDLYLVTRHADVIPVRRRGDSRGSLLSPRPVSYLKGSSGGPLLCPSGHAVGIFRAAVCTRGVAKAVDFVPVESMETTMRSPVFTDNSSPPAVPQSFQVAHLHAPTGSGKSTKVPAAYAAQGYKVLVLNPSVAATLGFGAYMSKAHGIDPNIRTGVRTITTGAPVTYSTYGKFLADGGCSGGAYDIIICDECHSTDSTTILGIGTVLDQAETAGARLVVLATATPPGSVTVPHPNIEEVALSNTGEIPFYGKAIPIEAIRGGRHLIFCHSKKKCDELAAKLSGLGINAVAYYRGLDVSVIPTIGDVVVVATDALMTGYTGDFDSVIDCNTCVTQTVDFSLDPTFTIETTTVPQDAVSRSQRRGRTGRGRRGIYRFVTPGERPSGMFDSSVLCECYDAGCAWYELTPAETSVRLRAYLNTPGLPVCQDHLEFWESVFTGLTHIDAHFLSQTKQAGDNFPYLVAYQATVCARAQAPPPSWDQMWKCLIRLKPTLHGPTPLLYRLGAVQNEVTLTHPITKYIMACMSADLEVVT | soluble

Reference: the DeepSol protein solubility set
